Target: KOC1 (RNA-immunoprecipitation from NSCLC cells) (Homo sapiens) (UniProt O00425)
Assay: pulldown

Chain of KOC1 (RNA-immunoprecipitation from NSCLC cells) (Homo sapiens) (O00425 whole entry): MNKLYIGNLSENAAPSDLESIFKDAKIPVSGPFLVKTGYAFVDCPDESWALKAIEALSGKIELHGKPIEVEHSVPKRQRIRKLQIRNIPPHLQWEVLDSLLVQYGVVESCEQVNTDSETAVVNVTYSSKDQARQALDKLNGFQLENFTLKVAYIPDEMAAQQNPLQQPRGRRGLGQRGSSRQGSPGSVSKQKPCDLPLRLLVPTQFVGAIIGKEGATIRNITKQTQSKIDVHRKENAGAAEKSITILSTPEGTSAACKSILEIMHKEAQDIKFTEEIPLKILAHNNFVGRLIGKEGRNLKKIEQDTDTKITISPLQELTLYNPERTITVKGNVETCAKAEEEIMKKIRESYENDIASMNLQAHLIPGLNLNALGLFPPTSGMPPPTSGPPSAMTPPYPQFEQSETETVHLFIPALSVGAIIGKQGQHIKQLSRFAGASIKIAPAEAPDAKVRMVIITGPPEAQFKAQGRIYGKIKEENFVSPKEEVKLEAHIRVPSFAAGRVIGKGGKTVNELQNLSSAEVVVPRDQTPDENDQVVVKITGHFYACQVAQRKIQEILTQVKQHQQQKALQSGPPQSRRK

| Substance | binding signal (fold IP/input, sum of five cell lines) (RNA-IP microarray) | further results |
| --- | --- | --- |
| PKP4 mRNA (AI681111) | 12.6 |  |
| SLC25A3 mRNA (NM_002635) | 21.7 |  |
| WINS1 mRNA (AA741459) | 10.9 |  |
| ACTB mRNA (BC053988) |  | binding signal (fold IP/input, sum of five cell lines) (negative control): 0 |
| GL mRNA (AJ420489) | 16 |  |
| PSMB7 mRNA (BM837906) | 16.5 |  |
| CCT2 mRNA (AF026166) |  | binding signal (fold IP/input, sum of five cell lines) (RNA-IP microarray, association in cell extract): 32.3 |
| SBP2 mRNA (AF380995) | 24 |  |

Reference: US7700573
